Data on 6 variants can be found in FireProtDB (doi:10.1021/bi951726o).

B1: Tryptophan synthase alpha chain, P0A877 (parent)
chain: MERYESLFAQLKERKEGAFVPFVTLGDPGIEQSLKIIDTLIEAGADALELGIPFSDPLADGPTIQNATLRAFAAGVTPAQCFEMLALIRQKHPTIPIGLLMYANLVFNKGIDEFYAQCEKVGVDSVLVADVPVEESAPFRQAALRHNVAPIFICPPNADDDLLRQIASYGRGYTYLLSRAGVTGAENRAALPLNHLVAKLKEYNAAPPLQGFGISAPDQVKAAIDAGAAGAISGSAIVKIIEQHINEPEKMLAALKVFVQPMKAATRS

The data set covers variants of B1. To be noted: Escherichia coli (strain K12), pH 7.8, Urea, NMR, Potassium phosphate 58 mM, reversible: yes, structure 1WQ5, whole UniProt chain shown.

MERYESLFAQLKERKEGAFVPFVTLGDPGIEQSLKIIDTLIEAGADALELGIPFSDPLADGPTIQNATLRAFAAGVTPAQCFEMLALIRQKHPTIPIGLLMYANLVFNKGIDEFYAQCEKVGVDSVLVADVPVEESAPFRQAALRHNVAPIFICPPNADDDLLRQIASYGRGYTYLLSRAGVTGAENRAALPLNHLVAKLKEYNAAPPLQGFGISAPDQVKAAIDAGAAGAISGSAIVKIIEQAINEPEKMLAALKVFVQPMKAATRS [H244A]: under “5 °C”, the “denaturant midpoint (higher = more stable)” value (from here on “denaturant midpoint”) was 4.8 M and the unfolding free energy came to 4 kcal/mol.

MERYESLFAQLKERKEGAFVPFVTLGDPGIEQSLKIIDTLIEAGADALELGIPFSDPLADGPTIQNATLRAFAAGVTPAQCFEMLALIRQKHPTIPIGLLMAANLVFNKGIDEFYAQCEKVGVDSVLVADVPVEESAPFRQAALRHNVAPIFICPPNADDDLLRQIASYGRGYTYLLSRAGVTGAENRAALPLNHLVAKLKEYNAAPPLQGFGISAPDQVKAAIDAGAAGAISGSAIVKIIEQHINEPEKMLAALKVFVQPMKAATRS [Y102A]: for the setting “25 °C”, the “denaturant midpoint” value was found to be 5 M and the unfolding free energy stood at 5.4 kcal/mol.

As for MERYESLFAQLKERKEGAFVPFVTLGDPGIEQSLKIIDTLIEAGADALELGIPFSDPLADGPTIQNATLRAFAAGVTPAQCFEMLALIRQKHPTIPIGLAMYANLVFNKGIDEFYAQCEKVGVDSVLVADVPVEESAPFRQAALRHNVAPIFICPPNADDDLLRQIASYGRGYTYLLSRAGVTGAENRAALPLNHLVAKLKEYNAAPPLQGFGISAPDQVKAAIDAGAAGAISGSAIVKIIEQHINEPEKMLAALKVFVQPMKAATRS [L100A], under “25 °C”, the “denaturant midpoint” value is 5.2 M and the unfolding free energy worked out at 4.7 kcal/mol.

Take MERYESLFAQLKERKEGAFVPFVTLGDPGIEQSLKIIDTLIEAGADALELGIPFSDPLADGPTIQNATLRAFAAGVTPAQCFEMLALIRQKHPTAPIGLLMYANLVFNKGIDEFYAQCEKVGVDSVLVADVPVEESAPFRQAALRHNVAPIFICPPNADDDLLRQIASYGRGYTYLLSRAGVTGAENRAALPLNHLVAKLKEYNAAPPLQGFGISAPDQVKAAIDAGAAGAISGSAIVKIIEQHINEPEKMLAALKVFVQPMKAATRS [I95A]: under “25 °C”, the “denaturant midpoint” value came to 6.2 M and the unfolding free energy stood at 7.9 kcal/mol.

MERYESLFAQLKERKEGAFVPFVTLGDPGIEQSLKIIDTLIEAGADALELGIPFSDPLADGPTIQNATLRAFAAGVTPAQCFEMLALIRQKHATIPIGLLMYANLVFNKGIDEFYAQCEKVGVDSVLVADVPVEESAPFRQAALRHNVAPIFICPPNADDDLLRQIASYGRGYTYLLSRAGVTGAENRAALPLNHLVAKLKEYNAAPPLQGFGISAPDQVKAAIDAGAAGAISGSAIVKIIEQAINEPEKMLAALKVFVQPMKAATRS [P93A H244A]: for the setting “25 °C”, the “denaturant midpoint” value amounted to 5.4 M and the unfolding free energy came out at 3.4 kcal/mol.

As to MERYESLFAQLKERKEGAFVPFVTLGDPGIEQSLKIIDTLIEAGADALELGIPFSDPLADGPTIQNATLRAFAAGVTPAQCFEMLALIRQKHPTIAIGLLMYANLVFNKGIDEFYAQCEKVGVDSVLVADVPVEESAPFRQAALRHNVAPIFICPPNADDDLLRQIASYGRGYTYLLSRAGVTGAENRAALPLNHLVAKLKEYNAAPPLQGFGISAPDQVKAAIDAGAAGAISGSAIVKIIEQHINEPEKMLAALKVFVQPMKAATRS [P96A], for the setting “25 °C”, the “denaturant midpoint” value was 8.6 M and the unfolding free energy stood at 4.9 kcal/mol.
